Data reported in patent US20210206865A1 (Regeneron, published 2021).

What was measured:
[1] = target: T1, human BCMA on the surface of cell lines (NCI-H929, MM.1S, OPM-2, RPMI-8226, Daudi, Raji, MOLP-8, U266) (human, UniProt Q02223 1-184); assay: cell-based or functional assay
T1 sequence: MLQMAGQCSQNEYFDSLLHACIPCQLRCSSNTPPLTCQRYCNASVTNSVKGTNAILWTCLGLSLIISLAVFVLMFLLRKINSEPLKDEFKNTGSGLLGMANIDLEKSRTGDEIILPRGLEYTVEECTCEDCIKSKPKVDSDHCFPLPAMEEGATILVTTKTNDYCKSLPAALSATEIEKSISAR

[2] = target: T2, monkey BCMA-MFC (monkey BCMA with C-terminal mFc tag) (monkey); assay: SPR Biacore, 25 C, mAb captured via anti-hFc
T2 construct: also called mfBCMA.mFc
Experimental: (§1) The CM5 Biacore sensor surface was derivatized by amine coupling with a monoclonal mouse anti-human Fc antibody (GE, #BR-1008-39) to capture purified anti-BCMA mAbs and anti-BCMA×anti-CD3 bispecific mAbs. All Biacore binding studies were performed in a buffer composed of 0.01M HEPES pH 7.4, 0.15M NaCl, 3 mM EDTA, 0.05% v/v Surfactant P20 (HBS-ET running buffer). […] Antigen samples were then injected over the anti-BCMA and anti-BCMA×anti-CD3 bispecific mAbs captured surfaces at a flow rate of 30 μL/minute. Antibody-reagent association was monitored for 5 minutes while dissociation in HBS-ET running buffer was monitored for 10 minutes. All of the binding kinetics experiments were performed at 25° C. Kinetic association (kₐ) and dissociation (kd) rate constants were determined by fitting the real-time sensorgrams to a 1:1 binding model using Scrubber 2.0c curve fitting software. Binding dissociation equilibrium constants (KD) and dissociative half-lives (t1/2) were calculated from the kinetic rate constants as: […]

[3] = target: T3, human BCMA-MMH (extracellular domain of human BCMA with C-terminal myc-myc-hexahistidine tag) (human); assay: SPR Biacore, 25 C, mAb captured via anti-hFc
T3 construct: Monomeric antigen; also called hBCMA.mmh; hBCMA.mmH
T3 chain: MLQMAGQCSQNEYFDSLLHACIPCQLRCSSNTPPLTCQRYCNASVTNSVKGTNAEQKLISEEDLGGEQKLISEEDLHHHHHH
Experimental: as §1

[4] = target: T4, human BCMA-MFC (extracellular domain of human BCMA with C-terminal mFc tag) (human); assay: SPR Biacore, 25 C, mAb captured via anti-hFc
T4 construct: also called hBCMA.mFc
T4 chain: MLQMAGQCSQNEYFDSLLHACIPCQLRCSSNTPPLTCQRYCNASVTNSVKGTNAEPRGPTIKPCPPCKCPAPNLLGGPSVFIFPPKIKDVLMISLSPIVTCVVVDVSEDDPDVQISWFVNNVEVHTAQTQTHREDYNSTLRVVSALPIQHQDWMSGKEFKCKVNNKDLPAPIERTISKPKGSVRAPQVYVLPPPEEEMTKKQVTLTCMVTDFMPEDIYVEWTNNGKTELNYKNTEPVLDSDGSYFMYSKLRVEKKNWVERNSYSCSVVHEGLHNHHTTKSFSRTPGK
Experimental: as §1

[5] = target: T5, mouse BCMA-MFC (BCMA with C-terminal mFc tag) (mouse); assay: SPR Biacore, 25 C, mAb captured via anti-hFc
T5 construct: Tested at a single concentration of 30 nM; also called mBCMA.mFc
T5 chain: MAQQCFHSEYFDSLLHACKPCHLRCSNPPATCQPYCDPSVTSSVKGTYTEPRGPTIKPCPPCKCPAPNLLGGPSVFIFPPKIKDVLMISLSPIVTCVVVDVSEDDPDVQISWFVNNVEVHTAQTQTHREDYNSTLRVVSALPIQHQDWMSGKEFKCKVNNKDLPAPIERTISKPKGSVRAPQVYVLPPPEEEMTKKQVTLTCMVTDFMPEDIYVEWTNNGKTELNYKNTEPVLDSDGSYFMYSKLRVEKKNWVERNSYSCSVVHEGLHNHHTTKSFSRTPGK
Experimental: as §1

[6] = target: T6, monkey BCMA-MMH (monkey BCMA with C-terminal myc-myc-hexahistidine tag) (monkey); assay: SPR Biacore, 25 C, mAb captured via anti-hFc
T6 construct: Monomeric antigen; also called mfBCMA.mmh
Experimental: as §1

[7] = target: T1, human BCMA on the surface of cell lines …; assay: cell-based or functional assay; remark: listed apart in the source
[8] = target: T1, human BCMA on the surface of cell lines …; assay: cell-based or functional assay; remark: listed apart in the source
[9] = target: T1, human BCMA on the surface of cell lines …; assay: cell-based or functional assay; remark: listed apart in the source

B1: mAb16711 (antibody, V domains shown)
VH: QVQLVESGGGVVQPGRSLRLSCAASGFTFSTYGIHWVRQAPGKGLEWVAVILHDGSSNYYAESVKGRFIISRDNSKNTLYLQMNSLRAEDTALYYCTKRYSEAAGPNWFDPWGQGTLVTVSS
VL: DIQMTQSPSSVSASVGDRVTITCRASRGISSWLAWYQQKPGKAPKLLIHAASSLQSGVPSRFSGSGSGTDFTLTISSLQPEDFATYYCQQAISFPFTFGPGTKVDIK
notes: Anti-BCMA monoclonal antibody; Captured by anti-human Fc in SPR
- MFI fold change over cells incubated in media only, NCI-H929, overnight with 67 nM antibody [1]: 2.8 fold
- MFI fold change over cells incubated in media only, NCI-H929, overnight with 667 nM antibody [1]: 2.1 fold
- 30 nM mfBCMA.mFc Bind (RU) [2]: 0.9 RU
- binding result [2]: no binding (tested: 30 nM)
- 90 nM hBCMA.mmh Bind (RU) [3]: 22.2 RU
- Kd [3]: 1.73 nM
- koff [3]: 0.00347 s⁻¹
- kon [3]: 2.01e+06 M⁻¹ s⁻¹
- t1/2 [3]: 3.3 min
- 30 nM hBCMA.mFc Bind (RU) [4]: 114 RU
- Kd [4]: 0.103 nM
- koff [4]: 0.00019 s⁻¹
- kon [4]: 1.85e+06 M⁻¹ s⁻¹
- t1/2 [4]: 60.8 min
- 30 nM mBCMA.mFc Bind (RU) [5]: 90 RU
- Kd [5]: 1.02 nM
- koff [5]: 0.0011 s⁻¹
- kon [5]: 1.07e+06 M⁻¹ s⁻¹
- t1/2 [5]: 10.5 min
- 90 nM mfBCMA.mmh Bind (RU) [6]: -0.5 RU
- MFI fold change over cells incubated in media only, U266, overnight with 67 nM antibody [7]: 2.2 fold
- MFI fold change over cells incubated in media only, U266, overnight with 667 nM antibody [7]: 2.2 fold
- MFI fold change over cells incubated in media only, Molp8, overnight with 67 nM antibody [8]: 3.5 fold
- MFI fold change over cells incubated in media only, Molp8, overnight with 667 nM antibody [8]: 3 fold

B2: mAb16716 (antibody, V domains shown)
VH: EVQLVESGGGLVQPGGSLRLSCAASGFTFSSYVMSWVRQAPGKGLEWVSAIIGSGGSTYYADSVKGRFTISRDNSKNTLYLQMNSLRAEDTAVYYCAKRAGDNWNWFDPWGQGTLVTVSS
VL: DIQMTQSPSSVSASLGDRVTITCRASQGISSWLAWYQRKPGKAPKLLIYAASSLQSGVPSRFSGSGSGADFTLTISSLQPEDFATYYCQQAKSVPFTFGPGTKVDIK
notes: as for B1
- 90 nM hBCMA.mmh Bind (RU) [3]: 26.4 RU
- Kd [3]: 3.56 nM
- koff [3]: 0.00299 s⁻¹
- kon [3]: 841000 M⁻¹ s⁻¹
- t1/2 [3]: 3.9 min
- 30 nM hBCMA.mFc Bind (RU) [4]: 120 RU
- Kd [4]: 0.0968 nM
- koff [4]: 8.35e-05 s⁻¹
- kon [4]: 862000 M⁻¹ s⁻¹
- t1/2 [4]: 138 min
- 30 nM mBCMA.mFc Bind (RU) [5]: 33.4 RU
- Kd [5]: 18.8 nM
- koff [5]: 0.00385 s⁻¹
- kon [5]: 205000 M⁻¹ s⁻¹
- t1/2 [5]: 3 min
- 90 nM mfBCMA.mmh Bind (RU) [6]: 0.8 RU
- binding result [6]: no binding (tested: 90 nM)

B3: mAb21581, parental bivalent anti-BCMA antibody (antibody, V domains shown)
VH: EVQLVESGGGLVQPGGSLRLSCAASGFTFSNFWMTWVRQAPGKGLEWVANMNQDGSEKYYVDSVKGRFTISRDNAKSSLYLQMNSLRAEDTAVYYCARDREYCISTSCYDDFDYWGQGTLVTVSS
VL: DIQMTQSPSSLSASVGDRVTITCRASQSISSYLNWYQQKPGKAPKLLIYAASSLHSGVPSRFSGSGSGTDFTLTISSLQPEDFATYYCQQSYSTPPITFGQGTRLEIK
- MFI fold change over cells incubated in media only, NCI-H929, overnight with 67 nM antibody [1]: 1.2 fold
- MFI fold change over cells incubated in media only, NCI-H929, overnight with 667 nM antibody [1]: 1.4 fold
- MFI fold change over cells incubated in media only, U266, overnight with 67 nM antibody [7]: 1.8 fold
- MFI fold change over cells incubated in media only, U266, overnight with 667 nM antibody [7]: 2.3 fold
- MFI fold change over cells incubated in media only, MM1S, overnight with 67 nM antibody [9]: 7.3 fold
- MFI fold change over cells incubated in media only, MM1S, overnight with 667 nM antibody [9]: 7 fold
- MFI fold change over cells incubated in media only, Molp8, overnight with 67 nM antibody [8]: 2.3 fold
- MFI fold change over cells incubated in media only, Molp8, overnight with 667 nM antibody [8]: 3.7 fold

B4: mAb16747 (REGN4515) (antibody, V domains shown)
VH: QVQLVESGGGLVKPGGSLRLSCAASGFTFSDYYISWIRQAPGKGLEWVSYISSSGSSIKYADSVKGRFTISRDNAKNSLYLQMNSLRAEDTAVYYCAREGGNYGMDVWGQGTTVTVSS
VL: DIQMTQSPSSVSASVGDRVTITCRASQGINNWLVWYQQKPGKAPKLLIYAATSLQSGVPSRFSGSGSGTDFTLTISSLQPEDFATYYCQQANSFPPTFGQGTKLEIK
notes: as for B1
- MFI fold change over cells incubated in media only, NCI-H929, overnight with 67 nM antibody [1]: 1.8 fold
- MFI fold change over cells incubated in media only, NCI-H929, overnight with 667 nM antibody [1]: 2.1 fold
- 30 nM mfBCMA.mFc Bind (RU) [2]: 101 RU
- Kd [2]: 3.37 nM
- koff [2]: 0.00716 s⁻¹
- kon [2]: 2.13e+06 M⁻¹ s⁻¹
- t1/2 [2]: 1.6 min
- 90 nM hBCMA.mmh Bind (RU) [3]: 31.4 RU
- Kd [3]: 2.84 nM
- koff [3]: 0.00247 s⁻¹
- kon [3]: 869000 M⁻¹ s⁻¹
- t1/2 [3]: 4.7 min
- 30 nM hBCMA.mFc Bind (RU) [4]: 146 RU
- Kd [4]: 0.0633 nM
- koff [4]: 8.95e-05 s⁻¹
- kon [4]: 1.41e+06 M⁻¹ s⁻¹
- t1/2 [4]: 129 min
- 30 nM mBCMA.mFc Bind (RU) [5]: 108 RU
- Kd [5]: 4.42 nM
- koff [5]: 0.00418 s⁻¹
- kon [5]: 947000 M⁻¹ s⁻¹
- t1/2 [5]: 2.8 min
- MFI fold change over cells incubated in media only, U266, overnight with 67 nM antibody [7]: 1.5 fold
- MFI fold change over cells incubated in media only, U266, overnight with 667 nM antibody [7]: 1.7 fold
- MFI fold change over cells incubated in media only, Molp8, overnight with 67 nM antibody [8]: 2.2 fold
- MFI fold change over cells incubated in media only, Molp8, overnight with 667 nM antibody [8]: 0.6 fold

B5: mAb16732 (REGN4514) (antibody, V domains shown)
VH: EVQLVESGGGLVQPGRSLRLSCAASGFTFDDYAMHWVRQAPGKGLEWVSGISWNSGNMGYADSVKGRFTISRDNAKNSLFLQMHSLRAEDTAFYYCAKVRLTAFDFWGQGTLVTVSS
VL: DIQMTQSPSSLSASVGDRVTITCRTSQSIGNYLNWFQQKPGKAPKLLIYTASSLQNGVPSRFTGSGSGTDFTLTISSLQPEDFVIYYCQQSFSTPYTFGQGTKLEIK
notes: as for B1
- 30 nM mfBCMA.mFc Bind (RU) [2]: 40.3 RU
- Kd [2]: 14.7 nM
- koff [2]: 0.00724 s⁻¹
- kon [2]: 492000 M⁻¹ s⁻¹
- t1/2 [2]: 1.6 min
- 90 nM hBCMA.mmh Bind (RU) [3]: 25.3 RU
- Kd [3]: 2.69 nM
- koff [3]: 0.00285 s⁻¹
- kon [3]: 1.06e+06 M⁻¹ s⁻¹
- t1/2 [3]: 4.1 min
- 30 nM hBCMA.mFc Bind (RU) [4]: 124 RU
- Kd [4]: 0.0422 nM
- koff [4]: 4.53e-05 s⁻¹
- kon [4]: 1.07e+06 M⁻¹ s⁻¹
- t1/2 [4]: 255 min
- 30 nM mBCMA.mFc Bind (RU) [5]: 110 RU
- Kd [5]: 0.677 nM
- koff [5]: 0.000269 s⁻¹
- kon [5]: 397000 M⁻¹ s⁻¹
- t1/2 [5]: 43 min
